Test results from patent US20250277008A1, “Novel Anti-Bacterial Peptides Derived From Differentiating Stem Cells” (AGENCY FOR SCIENCE, TECHNOLOGY AND RESEARCH, priority 2022, published 2025).
Values after ≈ are worked out from the molar mass of the structure shown. “Also recorded” adds a separate entry of the source. Read-outs that look alike come from different tables or passages of the source. Ends that are not written are not given here.

Tests used:
[1] = test system: S. typhimurium (ST); experiment: Anti-bacterial resistance evolution assay (serial passaging); assay type: cell-based; conditions: Salmonella enterica, 384 h, read-out: Minimum Inhibitory Concentration (MIC) after serial passaging
Method: To determine the antibacterial effects of the ASC-CM or anti-bacterial peptides, intracellular ATP levels of the bacteria was determined by the ATP Determination Kit. As indicated in the antibacterial assay protocol, after overnight incubation of the ASC-CM or peptides with bacteria for a period of 24 hours, the culture was first spun to eliminate the extracellular ATP and other metabolic waste released from the dead bacteria. The bacterial pellet was resuspended in equivalent amount of water and the levels of intracellular ATP was calculated based on manufacturer's instructions.
The resistance development of S. typhimurium (ST) strain was assessed by sequential passaging in the presence of sub-inhibitory concentrations of gentamicin or ASC-CM. Briefly, sequential passaging of S. typhimurium (ST) cells was done with full-strength, ½-strength, and ¼-strengths of ASC-CM or sub-inhibitory concentrations of gentamicin for a period of 4 weeks. The cells grown in sub-inhibitory strengths of either conditioned media (CM) or gentamicin were diluted to A600 nm (OD600) of 0.1 and serially passaged daily with the same concentrations for 4 weeks at 37° C. with agitation at 24 h intervals.

[2] = test system: human keratinocytes; experiment: 2-dimensional scratch assay; assay type: cell-based; conditions: compared to media control
Method: Cell confluency of human keratinocytes were assessed in presence of peptides in a 2D scratch assay at each timepoint by applying an ImageJ plugin PHANTAST on phase contrast time lapse images. The rate of change of keratinocytes confluency was calculated by obtaining a best fit line across the confluency vs time plot as described in. The rate of change of confluence was used as a surrogate measure for speed of migrating keratinocytes.

[3] = test system: P. aeruginosa (PA); assay type: cell-based, Pseudomonas aeruginosa (ATCC 14213); conditions: for minimum bactericidal concentration (MBC): PA; for minimum bactericidal concentration (MBC) / concentration required to significantly kill: MBC = lowest concentration killing ≥50% colonies vs media control
Method: (§1) Examination of the potency of conditioned media obtained from adipose-derived mesenchymal stem cells (ASC-CM) and recombinant peptides against S. typhimurium, P. aeruginosa and S. aureus strains were performed by using the broth microdilution protocol from the Clinical and Laboratory Standards Institute (CLSI) guidelines (CLSI 2012). Briefly, five freshly plated bacteria colonies were grown in cation adjusted MH2 broth in a shaker incubator at 37° C., 220 RPM. Cells were grown to an optical density (OD600) of 0.20 using a Microplate Spectrophotometer. 100 μL of microbial culture containing ˜5×10^5 CFU/mL of bacteria in the respective broths were introduced into each well containing 100 μL of ASC-CM or peptides and incubated overnight at 37° C. Next, to check the bactericidal effects, 100 μL from each well was transferred and spread on sterile MH2 agar plates. The plates were incubated overnight at 37° C. and the number of colonies forming units (CFU) was observed the next day. Readings of bacteria grown in media without any treatments were normalized to 100% as media control. Minimum bactericidal concentration (MBC) was defined as the lowest peptide concentration (μM) required to kill ≥50% bacterial colonies compared to the media control.

[4] = test system: 3-day old P. aeruginosa (PA) biofilm; experiment: Estimation of biofilm disruption (crystal violet staining); assay type: cell-based, Pseudomonas aeruginosa (ATCC 14213)
Method: Biofilms were grown in cation adjusted MH2 broth for 72 hours in 96-well clear bottom polystyrene plates. The biofilm inoculum was prepared by subculturing overnight bacterial culture for 90 minutes until OD600 reaches ˜0.3-0.4. 200 μL of biofilm inoculum was aliquoted into each well of the 96-well plate. After 72 hours of static incubation at 37° C., the spent media was expelled, and the biofilms were treated with ASC-CM for 24 hours. […] Briefly, all the contents in the 96-well plates were removed and the wells were washed thrice with 1×PBS (Phosphate Buffer Solution) to remove the non-adherent planktonic bacteria. The attached biofilms were fixed with 95% methanol for 5 minutes. The wells were air-dried and stained with 0.1% crystal violet solution for 15 minutes at room temperature. The crystal violet solution was removed, and the wells were washed with water three times. The plates were again air-dried, and the stained biofilm was solubilized using 30% acetic acid. The absorbance of the biofilms were recorded at OD595 using Micro xMark™ Microplate Absorbance Spectrophotometer.

[5] = test system: S. typhimurium (ST); experiment: Antibacterial assay (CLSI broth microdilution, CFU counts); assay type: cell-based; conditions: for minimum bactericidal concentration (MBC) / concentration required to significantly kill: MBC = lowest concentration killing ≥50% colonies vs media control
Method: as §1

[6] = test system: S. aureus (SA); assay type: cell-based; conditions: for minimum bactericidal concentration (MBC) / concentration required to significantly kill: MBC = lowest concentration killing ≥50% colonies vs media control
Method: as §1

[7] = test system: 3-day old S. typhimurium (ST) biofilm; experiment: Estimation of biofilm disruption (crystal violet staining); assay type: cell-based, Salmonella typhimurium
Method: Biofilms were grown in cation adjusted MH2 broth for 72 hours in 96-well clear bottom polystyrene plates. The biofilm inoculum was prepared by subculturing overnight bacterial culture for 90 minutes until OD600 reaches ˜0.3-0.4. 200 μL of biofilm inoculum was aliquoted into each well of the 96-well plate. After 72 hours of static incubation at 37° C., the spent media was expelled, and the biofilms were treated with ASC-CM for 24 hours. Post-treatment, the minimum biofilm inhibition concentration (MBIC) showing >50% reduction was determined by quantifying the levels of remaining attached biofilm, by crystal violet staining method. Briefly, all the contents in the 96-well plates were removed and the wells were washed thrice with 1×PBS (Phosphate Buffer Solution) to remove the non-adherent planktonic bacteria. The attached biofilms were fixed with 95% methanol for 5 minutes. The wells were air-dried and stained with 0.1% crystal violet solution for 15 minutes at room temperature. The crystal violet solution was removed, and the wells were washed with water three times. The plates were again air-dried, and the stained biofilm was solubilized using 30% acetic acid. The absorbance of the biofilms were recorded at OD595 using Micro xMark™ Microplate Absorbance Spectrophotometer.

[8] = test system: P. aeruginosa 14213; experiment: Murine excisional wound infection model; assay type: in vivo, mice; conditions: wounds infected 24 hours, then ENO3 (0.2 nM) or SPARCL1 (0.067 nM) for 24 hours; vs untreated controls
Method: The murine wound infection model was carried as described with minor modifications. […] Statistical analysis was performed by Student's t-test compared to untreated (PBS). All approved procedures were performed in accordance with the 218 Institutional Animal Care and Use Committee (IACUC) in Nanyang Technological 219 University, School of Biological Sciences (ARFSBS/NIEA0198Z) for murine wound infection model.
The biofilm disruption ability of ENO3 and SPARCL1 in a murine excisional wound infection model. Excisional wounds were infected with ˜10^3 CFU of P. aeruginosa 14213 and treated for 24 hours to form the biofilms. […] Post-treatment, the wound region was excised, and the bacterial count were enumerated.

[9] = test system: P. aeruginosa (PA); assay type: cell-based, Pseudomonas aeruginosa (ATCC 14213); conditions: FIG. 6H

**Q.** Which results are given for `CN[C@@H]1[C@@H](O)C(O[C@@H]2[C@@H](O)[C@H](O[C@H]3O[C@H]([C@@H](C)NC)CC[C@H]3N)[C@@H](N)C[C@H]2N)OC[C@]1(C)O` (stereo partly drawn) [Gentamicin, (3R,4R,5R)-2-{[(1S,2S,3R,4S,6R)-4,6-diamino-3-{[(2R,3R,6S)-3-amino-6-[(1R)-1-(methylamino)ethyl]oxan-2-yl]oxy}-2-hydroxycyclohexyl]oxy}-5-methyl-4-(methylamino)oxane-3,5-diol, reference compound]?
**A.** MIC [1]: 1020 mg/L (≈ 2140 µM); migration of human keratinocytes (rate of change of confluency) [2]: significantly impaired; also recorded: no cell migration is observed

**Q.** Which results are given for “HHKAEKSSVLKSKEESH [Peptide S1A, HHKAEKSSVLKSKEESH]”?
**A.** minimum bactericidal concentration (MBC) [3]: 100000 nM; anti-bacterial activity (bacterial viability) ([3]; S1A 100 μM): more than 50%; biofilm disruption activity ([4]; S1A 0.78 μM-3.125 μM): more than 50%

**Q.** For “KQRNKVKKIYLDEKR [Peptide S1B, KQRNKVKKIYLDEKR]”, which “minimum bactericidal concentration (MBC)” value [3] is on record?
**A.** The value was 50000 nM.

**Q.** And the “anti-bacterial activity (bacterial viability)” value ([3]; S1B 50 μM)?
**A.** Its value is “more than 50%”.

**Q.** What about the biofilm disruption activity ([4]; S1B 6.25 μM-12.5 μM) of the same molecule?
**A.** The biofilm disruption activity was “more than 50%”.

**Q.** For KVNQIGSVTESIQACKLAQSN [Peptide E1A], which “anti-bacterial activity (bacterial viability)” value ([3]; E1A 0.39 μM) is on record?
**A.** The value was “more than 50%”.

**Q.** What about the “minimum bactericidal concentration (MBC)” value [3] of the same molecule?
**A.** The value was 390 nM.

**Q.** What about the biofilm disruption activity ([4]; E1A 0.39 μM-1.56 μM) of the same molecule?
**A.** The biofilm disruption activity was “more than 50%”.

**Q.** What about the “migration of human keratinocytes (rate of change of confluency)” value [2] of the same molecule?
**A.** Its value is “increased migration of human keratinocytes; also recorded: higher migration speed”.

B1: SPARCL1: recombinant full-length human SPARCL1 peptide, SEQ ID NO: 2, identified in bacteria-primed ASC conditioned media (protein, listed as Homo sapiens)
chain: MKTGLFFLCLLGTAAAIPTNARLLSDHSKPTAETVAPDNTAIPSLRAEAEENEKETAVSTEDDSHHKAEKSSVLKSKEESHEQSAEQGKSSSQELGLKDQEDSDGHLSVNLEYAPTEGTLDIKEDMSEPQEKKLSENTDFLAPGVSSFTDSNQQESITKREENQEQPRNYSHHQLNRSSKHSQGLRDQGNQEQDPNISNGEEEEEKEPGEVGTHNDNQERKTELPREHANSKQEEDNTQSDDILEESDQPTQVSKMQEDEFDQGNQEQEDNSNAEMEEENASNVNKHIQETEWQSQEGKTGLEAISNHKETEEKTVSEALLMEPTDDGNTTPRNHGVDDDGDDDGDDGGTDGPRHSASDDYFIPSQAFLEAERAQSIAYHLKIEEQREKVHENENIGTTEPGEHQEAKKAENSSNEEETSSEGNMRVHAVDSCMSFQCKRGHICKADQQGKPHCVCQDPVTCPPTKPLDQVCGTDNQTYASSCHLFATKCRLEGTKKGHQLQLDYFGACKSIPTCTDFEVIQFPLRMRDWLKNILMQLYEANSEHAGYLNEKQRNKVKKIYLDEKRLLAGDHPIDLLLRDFKKNYHMYVYPVHWQFSELDQHPMDRVLTHSELAPLRASLVPMEHCITRFFEECDPNKDKHITLKEWGHCFGIKEEDIDENLLF
**Q.** B1 was tested. Which “minimum bactericidal concentration (MBC) / concentration required to significantly kill” value [5] did it give?
**A.** The value was 0.0067 nM.

**Q.** And the “bacterial reduction (CFU %)” value ([5]; SPARCL1 0.0067 nM)?
**A.** The value was “more than 50%”.

**Q.** And the “minimum bactericidal concentration (MBC) / concentration required to significantly kill” value [3]?
**A.** Its value is 268 nM.

**Q.** What about the “bacterial reduction (CFU %)” value ([3]; SPARCL1 268 nM) of the same molecule?
**A.** Its value is “more than 50%”.

**Q.** What about the “minimum bactericidal concentration (MBC) / concentration required to significantly kill” value [6] of the same molecule?
**A.** Its value is 1000 nM.

**Q.** What about the “bacterial reduction (CFU %)” value ([6]; SPARCL1 1000 nM, FIG. 6F) of the same molecule?
**A.** The value was “more than 50%”.

**Q.** And the biofilm disruption ([4]; SPARCL1 about 0.00134 nM)?
**A.** Its biofilm disruption is about 50%.

**Q.** And the biofilm disruption ([7]; SPARCL1 about 0.00134 nM)?
**A.** Its biofilm disruption is about 50%.

**Q.** And the “migration of human keratinocytes (rate of change of confluency)” value [2]?
**A.** The value was “increased migration of human keratinocytes; also recorded: higher keratinocytes migration rate”.

**Q.** What about the “bacterial colonies (CFU counts) in excised wound” value [8] of the same molecule?
**A.** The value was “reduction of bacterial colonies; also recorded: Reduction in bacterial colonies”.

B2: ENO3: recombinant full-length human ENO3 peptide, SEQ ID NO: 1, identified in bacteria-primed ASC conditioned media (protein, listed as Homo sapiens)
chain: MAMQKIFAREILDSRGNPTVEVDLHTAKGRFRAAVPSGASTGIYEALELRDGDKGRYLGKGVLKAVENINNTLGPALLQKKLSVVDQEKVDKFMIELDGTENKSKFGANAILGVSLAVCKAGAAEKGVPLYRHIADLAGNPDLILPVPAFNVINGGSHAGNKLAMQEFMILPVGASSFKEAMRIGAEVYHHLKGVIKAKYGKDATNVGDEGGFAPNILENNEALELLKTAIQAAGYPDKVVIGMDVAASEFYRNGKYDLDFKSPDDPARHITGEKLGELYKSFIKNYPVVSIEDPFDQDDWATWTSFLSGVNIQIVGDDLTVTNPKRIAQAVEKKACNCLLLKVNQIGSVTESIQACKLAQSNGWGVMVSHRSGETEDTFIADLVVGLCTGQIKTGAPCRSERLAKYNQLMRIEEALGDKAIFAGRKFRNPKAK
**Q.** What does the source list for B2?
**A.** bacterial reduction (CFU %) ([5]; ENO3 2.04 nM): more than 50%; minimum bactericidal concentration (MBC) / concentration required to significantly kill [5]: 2.04 nM; bacterial reduction (CFU %) ([3]; ENO3 0.204 nM): more than 50%; minimum bactericidal concentration (MBC) / concentration required to significantly kill [3]: 0.204 nM; bacterial reduction (CFU %) ([6]; ENO3 0.102 nM, FIG. 6C): more than 50%; minimum bactericidal concentration (MBC) / concentration required to significantly kill [6]: 0.102 nM; MBC ([6]; S. aureus, >99% reduction of viable colonies, FIG. 6G): 2000 nM; MIC ([6]; S. aureus, spot plate, FIG. 6G): 2000 nM; biofilm disruption ([4]; ENO3 about 0.0102 nM): ~50%; biofilm disruption ([7]; ENO3 about 0.0102 nM): more than 50%; migration of human keratinocytes (rate of change of confluency) [2]: increased migration of human keratinocytes; also recorded: higher keratinocytes migration rate; bacterial colonies (CFU counts) in excised wound [8]: reduction of bacterial colonies; also recorded: Reduction in bacterial colonies; MBC ([9]; >99% reduction of viable colonies): 6000 nM; MIC ([9]; spot plate): 4000 nM
